Experiment [1] deals with T1, mouse EphA4 ectodomain fused to Fc (mouse, UniProt Q03137 20-547).
T1 construct: extracellular domain; Defined as 'EphA4 Fc; also called EphA4 Fc; not shown: Fc portion
The experiment in a line: competition ELISA: ephrin-A5 AP binding to immobilized EphA4 Fc. As to the method:
OD₄₀₅ was measured and the absorbance from wells coated with Fc was subtracted as background.
(An ELISA detects its analyte on a solid surface through an enzyme-linked reagent.)

Experiment [2] has as its target EphA4 in stably transfected human embryonal kidney (HEK293) cells. As to the kind of experiment: cell-based or functional assay.

Bridge positions count the residues as written; N and C are the ends. Square brackets hold non-standard residues; d marks the D form. Ends that are not written are not given here. βAla = NCCC(=O)O

Broadly, the IC50 is the concentration at which inhibition is half-maximal. Lower therefore signals greater potency in that assay.

T1 sequence (Q03137 20-547): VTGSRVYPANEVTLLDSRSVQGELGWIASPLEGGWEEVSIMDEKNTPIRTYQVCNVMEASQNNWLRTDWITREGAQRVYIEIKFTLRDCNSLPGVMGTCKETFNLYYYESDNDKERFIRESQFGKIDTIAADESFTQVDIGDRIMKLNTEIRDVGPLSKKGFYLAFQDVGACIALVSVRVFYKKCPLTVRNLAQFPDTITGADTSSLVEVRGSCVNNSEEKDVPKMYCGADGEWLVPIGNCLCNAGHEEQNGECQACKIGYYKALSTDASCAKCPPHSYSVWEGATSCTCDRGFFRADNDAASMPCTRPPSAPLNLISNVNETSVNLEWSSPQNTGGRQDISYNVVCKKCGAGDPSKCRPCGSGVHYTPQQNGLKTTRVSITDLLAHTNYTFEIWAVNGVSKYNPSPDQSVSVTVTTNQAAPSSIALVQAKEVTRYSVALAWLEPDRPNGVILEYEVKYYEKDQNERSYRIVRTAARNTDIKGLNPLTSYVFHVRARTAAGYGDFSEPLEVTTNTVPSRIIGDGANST

In experiment [1], YCVYR[βAla]SWSC-NH2 (disulfide 2-10 (inferred), numbers may be shifted) [Y-βAla8.am] displayed an IC50 of 1470 nM. On to XPYCVYRGSWSC (D-Ala at position 1; C-terminal amide; disulfide bridge Cys4-Cys12) [DAla1-PY.am], for which, in experiment [1], the IC50 amounted to 1100 nM. The molecule XPYCVYRGSWSC (βAla at position 1; C-terminal amide; disulfide bridge Cys4-Cys12) [βAla1-PY.am] displayed an IC50 in experiment [1] of 680 nM.

B1: APY-Aib8.am (peptide)
peptide: APYCVYRXSWSC
modifications: aminoisobutyric acid (Aib) at position 8; C-terminal amide; disulfide bridge Cys4-Cys12
Regarding B1, the IC50 in experiment [1] is 2600 nM. The molecule APYCVYK[βAla]SWSC-NH2 (disulfide 4-12 (inferred), also called APYCVYKβASWSC-am) [APY-Lys7-βAla8.am] gave an IC50 in experiment [1] of 68 nM.

The molecule APYCVYRGSWSC-NH2 (disulfide 4-12, C-terminally amidated APY) [APY.am] came in with a concentration for half-maximal inhibition (IC50) in experiment [1] of 280 nM. In the case of APYCVYRXSWSC (D-Ala at position 8; C-terminal amide; disulfide bridge Cys4-Cys12) [APY-DAla8.am], the IC50 in experiment [1] was determined as 280 nM.

As for KYCVYR[βAla]SWSC-NH2 (disulfide 3-11 (inferred), numbers may be shifted) [KY-βAla8.am], the IC50 in experiment [1] came out at 260 nM.

In experiment [1], Ac-KYCVYR[βAla]SWSC-NH2 (disulfide 3-11 (inferred), numbers may be shifted) [ac.KY-βAla8.am] displayed an IC50 of 1160 nM.

B2: APY-βAla8.am (peptide)
peptide: APYCVYRXSWSC
modifications: βAla (3-aminopropanoic acid) at position 8; C-terminal amide; disulfide bridge Cys4-Cys12
With B2, the “IC50 of inhibition of ephrin-A5-induced EphA4 tyrosine phosphorylation in HEK293 cells” value in experiment [2] was around 300 nM.

The record behind these values is patent US20190038704A1 (SANFORD BURNHAM PREBYS MEDICAL DISCOVERY INSTITUTE, published 2019).
